Assay results from the supplement of paper PMC10567573.
± gives the standard deviation.

Assay: protein stability index of a GFP-peptide fusion (GPS, HEK-293T) (PSI 1-6); higher = more stable
Conditions: c terminus: a fixed tail appended
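Further: 24-mer peptide tiles fused after GFP, lentivirally expressed, FACS-sorted into six equal bins by GFP/DsRed ratio, decoded by Illumina sequencing, PSI is the read-weighted mean bin number.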

Row | Sequence | protein stability index (treatment: DMSO) | protein stability index (treatment: MLN4924 1 uM, 8 h)
1 | GSKLEKGHLRGPEIRDWRGPQLEG [ZSWIM9] | 3.87 ± 0.35 | 3.85 ± 0.2
2 | YDYVREFKRSTGTWHHTKPLLPSD [GAN] | 3.2 ± 0.32 | 3.27 ± 0.21
3 | PFIVFGATGLTSGLLSLLLPETLN [SLC22A15] | 3.19 ± 0.49 | 3.14 ± 0.42
4 | LLDSMCPASTPSVLSSEQEFQMFP [ETS2] | 3.94 ± 0.16 | 4.07 ± 0.28
5 | QASVSCALEALEPFWEVLVRSTET [HDAC6] | 2.64 ± 0.57 | 2.46 ± 1.1
6 | ILSGLDDMSIGGNLSKTQNMERFG [CDC14A] | 3.24 ± 0.22 | 3.08 ± 0.26
7 | LSSEMNTSTVNSAREELMESRMRI [LMNB1] | 4.48 ± 0.29 | 4.27 ± 0.17
8 | QHKTCMLNATSKFMEFYQDVKDWW [EDNRA] | 2.6 ± 0.74 | 2.89 ± 0.36
9 | GLAGLLPASYTAPIMSGQGLAGFF [SLC29A1] | 2.06 ± 0.25 | 2.1 ± 0.086
10 | LTMAATFDDCLYALCVVDTIKRSS [GFOD1] | 2.54 ± 0.72 | 2.68 ± 0.57
11 | KVNSKKMLGKYNTPVSYRMAKTLV [ACSBG2] | 1.81 ± 0.082 | 2.05 ± 0.42
12 | TLVEAIKEQDGREVDWEYFYGLLF [DFFB] | 2.46 ± 0.28 | 2.69 ± 0.63
13 | TEALGCDPPLSQDERTHRSDRPFK [ZNF8] | 5.39 ± 0.28 | 5.26 ± 0.16
14 | ADGQRHHSKLLVSGFWGVARHFNY [DHCR7] | 2.27 ± 0.43 | 2.14 ± 0.27
15 | GGFGSMLRALGAQIEKTTNREACR [SDE2] | 3.27 ± 0.41 | 3.34 ± 0.13
16 | NGTMTIDWNEWRDYHLLHPVENIP [SLC25A25] | 3.18 ± 0.28 | 3.07 ± 0.19
17 | SCLLLQLRREKPSEEMVKMVLSRP [INTS3] | 2.64 ± 0.67 | 2.42 ± 0.34
18 | RSSSCGDTELLGQATLPVGSPSRP [C2CD2L] | 5.04 ± 0.15 | 5.04 ± 0.13
19 | KVHIGYLPNKQVLGLSKLARIVEI [GCH1] | 2.84 ± 1.1 | 2.48 ± 0.8
20 | YYLALLLSLLVMVISPVIQLQPTF [NSDHL] | 2.68 ± 0.37 | 2.91 ± 0.64
21 | HSVLVDDDGIKVVKVTFNKQDSLV [TMEM106C] | 3.09 ± 0.27 | 3.18 ± 0.36

Row | Sequence | protein stability index (treatment: DMSO) | protein stability index (treatment: MLN4924 1 uM, 8 h)
22 | TLDLSDLEAEKLVMFQRRYYKPGL [SCD] | 2.54 ± 0.3 | 2.88 ± 0.35
23 | YKREILERVDGRRLVYKFGKNSSG [ELF3] | 3.1 ± 0.22 | 3.21 ± 0.44
24 | HLVQHQRIHSGEKPYECNECGKAF [ZNF232] | 3.65 ± 0.21 | 3.8 ± 0.098
25 | MFIPETKGCSLEQISMELAKVNYV [SLC2A12] | 2.33 ± 0.62 | 2.39 ± 0.31
26 | GDPLNCHSYLSGYISLLLRAEPYP [NR2F2] | 2.76 ± 0.82 | 2.71 ± 0.65
27 | LAGAALEPAGGGRSREARSRLLLL [SMAD6] | 3.38 ± 0.27 | 3.65 ± 0.31
28 | VKAATTEPTEVEEVVPALEPTETL [BCL2L13] | 5.65 ± 0.16 | 5.67 ± 0.14
29 | SDLLNDQDLLDVIRIKLDPCHPTV [EDARADD] | 2.67 ± 0.23 | 2.78 ± 0.21
30 | QYVYIAVMDYLPISSTSTKRTYWP [PLD5] | 3.01 ± 0.59 | 2.74 ± 0.29
31 | VAETECRYALQLQQIQGLISSIEA [KRT13] | 2.72 ± 0.15 | 2.63 ± 0.2
32 | YLKSCRRMKKNGMEMTRPTPPHLT [NOL4L] | 2.89 ± 0.19 | 2.96 ± 0.25
33 | CKKLSLELGGKNPAIIFEDANLDE [ALDH8A1] | 4.4 ± 0.11 | 4.32 ± 0.26
34 | AKVKLVFVEDQAVVETVFFLTSRT [ZSWIM9] | 3.31 ± 0.38 | 3.01 ± 0.5
35 | LYLQLAICSSLQNLEKTIFCLQKL [C8orf76] | 3.12 ± 0.69 | 3.2 ± 0.099
36 | SYMLQDSLEHVQLFDLMRRMLEFD [CLK3] | 2.35 ± 0.027 | 2.47 ± 0.21
37 | QVVTVHLQTSLENGTRVQEEPELV [FKBP8] | 4.18 ± 0.15 | 4.37 ± 0.31
38 | FETQLKTLCQFPETLLGDPKRRMR [KCNA3] | 3.54 ± 0.35 | 3.65 ± 0.28
39 | NAGLSHTEYQIVTDPGDVPAFLKW [SLC2A12] | 2.92 ± 0.3 | 3.1 ± 0.34
40 | PGEFSDASMSPDATKPSHWCSVAY [SMAD6] | 3.07 ± 0.14 | 3.14 ± 0.19
41 | QARLEEQQRLAHLEDKLRLLAQAR [LRRC45] | 3.37 ± 0.61 | 3.32 ± 0.35
42 | PKGRFERKRNPSRKKQHICDECGK [ZNF24] | 3.82 ± 0.49 | 

Row | Sequence | protein stability index (treatment: DMSO) | protein stability index (treatment: MLN4924 1 uM, 8 h)
43 | THADMDGKRTPRGRRGWKKFYAVL [PSD2] | 2.65 ± 0.15 | 2.9 ± 0.11
44 | NHWVPACHSFNRAIHKKAKGTEAE [FBXO34] | 4 ± 0.17 | 4.1 ± 0.12
45 | VVQEPPGRASRFLQSISWDPEDFE [TLE6] | 4.24 ± 0.33 | 4.65 ± 0.45
46 | LNKCFIKVPREKDEPGKGGFWRID [FOXJ1] | 2.98 ± 0.2 | 2.98 ± 0.096
47 | LACGSNRFNKLGLDHLSLGEEPVP [NEK8] | 3.12 ± 0.14 | 3.2 ± 0.14
48 | FWYREALDISDSISESGGLNWKMT [SLC6A17] | 2.17 ± 0.34 | 1.92 ± 0.32
49 | SSGKNVTLLVCGKKAYDYFQAKKI [PDZK1] | 2.13 ± 0.26 | 2.57 ± 0.82
50 | SMNWGINLLISLTFLTVTDLIGLP [SLC2A12] | 3.3 ± 0.18 | 3.02 ± 0.12
51 | RSWAMLFASGGFQVKLYDIEQQQI [CRYL1] | 2.16 ± 0.34 | 2.28 ± 0.67
52 | RYVSNWDFFIVGCEVIFCVFIFYY [PKD2L1] | 3.07 ± 0.34 | 2.89 ± 0.32
53 | ADFGSATFDHEHHTTIVATRHYRP [CLK3] | 3.79 ± 0.21 | 3.92 ± 0.29
54 | MFFTCGPNEAMVVSGFCRSPPVMV [FLOT1] | 2.93 ± 0.52 | 2.9 ± 0.74
55 | RAEIENLHRTFDPHFLRVPCWKIT [MOG] | 2.27 ± 0.22 | 2.42 ± 0.22
56 | ARNNNDPGRLTEALCLEVRPTYFE [RNF180] | 4.97 ± 0.23 | 4.96 ± 0.18
57 | TRGIAKIISAHIHPVCSLCWSRDG [RBBP5] | 2.45 ± 0.44 | 2.04 ± 0.19
58 | KVPREKDEPGKGGFWRIDPQYAER [FOXJ1] | 4.12 ± 0.34 | 4.2 ± 0.21
59 | RKILVLDLDETLIHSHHDGVLRPT [CTDNEP1] | 2.46 ± 0.2 | 2.61 ± 0.17
60 | GLLLGSHGLLGSPVRAAASSPVTT [CDC25B] | 2.74 ± 0.28 | 3.26 ± 0.31
61 | RYSGKILKNNETLVQHGVKPQEIV [IQUB] | 3.42 ± 0.21 | 3.71 ± 0.53
62 | PEWDTVTPEAKDLINKMLTINPSK [CAMK2A] | 4.886 ± 0.036 | 5.03 ± 0.12
63 | EVILGDIWKLNLQTFQWVKLPATM [KLHDC10] | 2.51 ± 0.51 | 2.21 ± 0.3
